Results reported in paper PMC3605307 (2013).

What was measured:
Experiment in all cases: SPR
Human TRAIL-R2-Fc V167A = Human TRAIL-R2-Fc V167A (human, UniProt O14763 58-184, V167A)
Human TRAIL-R2-Fc F112A = Human TRAIL-R2-Fc F112A (human, UniProt O14763 58-184, F112A)
[1] = target: Human TRAIL-R2-Fc D109A together with E78A (human, UniProt O14763 58-184, E78A | D109A)
[2] = target: Human TRAIL-R2-Fc triple mutation V167A-W173A-V179A (human, UniProt O14763 58-184, V167A | W173A | V179A)
Human TRAIL-R2-Fc triple mutation V167A-W173A-V179A, sequence (O14763 58-184 V167A/W173A/V179A): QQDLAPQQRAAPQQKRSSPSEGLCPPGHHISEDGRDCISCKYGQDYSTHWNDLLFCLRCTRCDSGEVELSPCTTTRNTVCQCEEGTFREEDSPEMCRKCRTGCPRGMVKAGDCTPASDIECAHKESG

Human TRAIL-R2-Fc D109A together with E78A, sequence (O14763 58-184 E78A/D109A): as the sequence (O14763 58-184 V167A/W173A/V179A) above, with E21A, D52A, A110V, A116W, A122V counted along it
Human TRAIL-R2-Fc V167A, sequence (O14763 58-184 V167A): as the sequence (O14763 58-184 V167A/W173A/V179A) above, with A116W, A122V counted along it
Human TRAIL-R2-Fc F112A, sequence (O14763 58-184 F112A): as the sequence (O14763 58-184 V167A/W173A/V179A) above, with F55A, A110V, A116W, A122V counted along it

B1: TRAIL (TNF-related apoptosis inducing ligand) ectodomain (ligand)
chain: TNELKQMQDKYSKSGIACFLKEDDSYWDPNDEESMNSPCWQVKWQLRQLVRKMILRTSEETISTVQEKQQNISPLVRERGPQRVAAHITGTRGRSNTLSSPNSKNEKALGRKINSWESSRSGHSFLSNLHLRNGELVIHEKGFYYIYSQTYFRFQEEIKENTKNDKQMVQYIYKYTSYPDPILLMKSARNSCWSKDAEYGLYSIYQGGIFELKENDRIFVSVTNEHLIDMDHEASFFGAFLVG
Kd (Human TRAIL-R2-Fc V167A): 4 nM
Kd (Human TRAIL-R2-Fc F112A): 4 nM
Kd [1]: 4 nM
Kd [2]: 4 nM

B2: Recombinant UL141 ectodomain (soluble, released from the Fc fusion) (domain or fragment)
chain: SFPFATADIAEKMWAENYETTSPAPVLVAEGEQVTIPCTVMTHSWPMVSIRARFCRSHDGSDELILDAVKGHRLMNGLQYRLPYATWNFSQLHLGQIFSLTFNVSTDTAGMYECVLRNYSHGLIMQRFVILTQLETLSRPDEPCCTPALGRYSLGDQIWSPTPWRLRNHDCGMYRGFQRNYFYIGRADAEDCWKPACPDEEPDRCWTVIQRYRLPGDCYRSQPHPPKFLPVTPAPPADIDTGMSPWATRG
Kd [1]: 60 nM
